Read-outs that look alike come from different tables or passages of the source.
What was measured:
native MS [1] = target: the molecule itself; test: native MS
native MS [2] = target: the molecule itself; test: native MS; remark: listed apart in the source

B1: Wild type SgrAI ENase (enzyme, Streptomyces griseus)
chain: PFTYSIEATRNLATTERCIQDIRNAPVRNRSTQFQLAQQNMLAYTFGEVIPGFASAGINGMNYRDVIGRPVENAVTEGTHFFRDDFRVDSNAKAKVAGDIFEIVSSAVMWNCAARWNSLMVGEGWRSQPRYSRPTLSPSPRRQVAVLNLPRSFDWVSLLVPESQEVIEEFRAGLRKDGLGLPTSTPDLAVVVLPEEFQNDEMWREEIAGLTRPNQILLSGAYQRLQGRVQPGEISLAVAFKRSLRSDRLYQPLYEANVMQLLLEGKLGAPKVEFEVHTLAPEGTNAFVTYEAASLYGLAEGRSAVHRAIRELYVPPTAADLARRFFAFLNERMELVNG
Native MS [1]
  stoichiometry N: 2
Native MS [2]
  stoichiometry N: 38

— publication PMC6402485 (Biochemistry, 2013)
